{
  "source": "patent US20100151556A1",
  "about": "(CELLECTIS, published 2010)",
  "proteins": {"B1": {"name": "M2-RM2-M3 RAG1 single chain meganuclease (protein)", "chain": "MNTKYNKEFLLYLAGFVDGDGSIIAQIKPRQSNKFKHQLSLTFAVTQKTQRRWFLDKLVDEIGVGYVYDSGSVSDYRLSEIKPLHNFLTQLQPFLKLKQKQANLVLKIIEQLPSAKESPDKFLEVCTWVDQIAALNDSKTRKTTSETVRAVLDSLSEKKKSSPAAGGSDKYNQALSKYNQALSKYNQALSGGGGSNKEFLLYLAGFVDGDGSIIAQINPNQSSKFKHRLRLTFYVTQKTQRRWFLDKLVDEIGVGYVRDSGSVSQYVLSEIKPLHNFLTQLQPFLKLKQKQANLVLKIIEQLPSAKESPDKFLEVCTWVDQIAALNDSKTRKTTSETVRAVLDSLSEKKKSSP"}, "B2": {"name": "M2G19S-RM2-M3 RAG1 single chain meganuclease (protein)", "chain": "B1 chain with G19S"}, "B3": {"name": "Single chain I-CreI meganuclease (enzyme)", "chain": "MANTKYNKEFLLYLAGFVDGDGSIIAQIKPNQSYKFKHQLSLTFQVTQKTQRRWFLDKLVDEIGVGYVRDRGSVSDYILSEIKPLHNFLTQLQAMLERIRLFNMREFLLYLAGFVDGDGSIIAQIKPNQSYKFKHQLSLTFQVTQKTQRRWFLDKLVDEIGVGYVRDRGSVSDYILSEIKPLHNFLTQLQPFLKLKQKQANLVLKIIEQLPSAKESPDKFLEVCTWVDQIAALNDSKTRKTTSETVRAVLDSLSEKKKSSPAAD", "notes": "Produced 'with or without an histidine tag'; It was purified on a cobalt column; also called Sc I-CreI; scI-CreI"}, "B4": {"name": "X2-L1-H33 single chain meganuclease (protein)", "chain": "MNTKYNKEFLLYLAGFVDGDGSIIAQIKPNQSHKFKHALQLTFKVTQKTQRRWFLDKLVDEIGVGYVQDSGSVSNYILSEIKPLHNFLTQLQPFLKLKQKQANLVLKIIEQLPSAKESPDKFLEVCTWVDQIAALNDSKTRKTTSETVRAVLDSLSEKKKSSPAAGGGGSGGGGSGGGGSGGGGSNKEFLLYLAGFVDGDGSIIAQIKPNQSHKFKHQLSLAFQVTQKTQRRWFLDKLVDEIGVGYVRDRGSVSDYILSEIKPLHNFLTQLQPFLKLKQKQANLVLKIIWRLPSAKESPDKFLEVCTWVDQIAALNDSKTRKTTSETVRAVLDSLSEKKKSSP"}, "B5": {"name": "X2-L1-H33G19S single chain meganuclease (protein)", "chain": "B4 chain with G199S"}, "B6": {"name": "single-chain M3-RM2-M2G19S meganuclease (enzyme)", "chain": "MANTKYNKEFLLYLAGFVDGDGSIIAQINPNQSSKFKHRLRLTFYVTQKTQRRWFLDKLVDEIGVGYVRDSGSVSQYVLSEIKPLHNFLTQLQPFLKLKQKQANLVLKIIEQLPSAKESPDKFLEVCTWVDQIAALNDSKTRKTTSETVRAVLDSLSGKKKSSPAAGGSDKYNQALSKYNQALSKYNQALSGGGGSNKEFLLYLAGFVDSDGSIIAQIKPRQSNKFKHQLSLTFAVTQKTQRRWFLDKLVDEIGVGYVYDSGSVSDYRLSEIKPLHNFLTQLQPFLKLKQKQANLVLKIIEQLPSAKESPDKFLEVCTWVDQIAALNDSKTRKTTSETVRAVLDSLSEKKKSSP", "notes": "also called SC-v3v2G19S; not shown: His6 tag at the C-terminus"}, "B7": {"name": "X2 I-CreI mutant (C4 cutter) (protein)", "chain": "MNTKYNKEFLLYLAGFVDGDGSIIAQIKPNQSHKFKHALQLTFKVTQKTQRRWFLDKLVDEIGVGYVQDSGSVSNYILSEIKPLHNFLTQLQPFLKLKQKQANLVLKIIEQLPSAKESPDKFLEVCTWVDQIAALNDSKTRKTTSETVRAVLDSLSEKKKSSP"}, "B8": {"name": "H33 I-CreI mutant (C3 / HprCH3.3 cutter) (protein)", "chain": "B7 chain with A38Q, Q40S, K44Q, Q68R, S70R, N75D"}, "B9": {"name": "MA17 I-CreI mutant (HprCH3.4 cutter) (protein)", "chain": "B7 chain with S32T, A38Q, Q40S, K44R, Q68Y, S72T, I77N"}, "B10": {"name": "X2-RM2-H33G19S single chain meganuclease (protein)", "chain": "MNTKYNKEFLLYLAGFVDGDGSIIAQIKPNQSHKFKHALQLTFKVTQKTQRRWFLDKLVDEIGVGYVQDSGSVSNYILSEIKPLHNFLTQLQPFLKLKQKQANLVLKIIEQLPSAKESPDKFLEVCTWVDQIAALNDSKTRKTTSETVRAVLDSLSEKKKSSPAAGGSDKYNQALSKYNQALSKYNQALSGGGGSNKEFLLYLAGFVDSDGSIIAQIKPNQSHKFKHQLSLAFQVTQKTQRRWFLDKLVDEIGVGYVRDRGSVSDYILSEIKPLHNFLTQLQPFLKLKQKQANLVLKIIWRLPSAKESPDKFLEVCTWVDQIAALNDSKTRKTTSETVRAVLDSLSEKKKSSP"}, "B11": {"name": "X2-RM2-H33 single chain meganuclease (protein)", "chain": "B10 chain with S209G"}},
  "key": {"[1]": {"target": "the molecule itself", "experiment": "size-exclusion chromatography of the purified protein; no self-association", "description": "The molecular weight of Sc I-CreI in solution was estimated by size-exclusion chromatography of the purified protein. The column fractions were analyzed by SDS-PAGE, and the 31.4 kDa band eluted primarily, which corresponded to a molecular mass of 30 kDa."}, "[2]": {"target": "the molecule itself", "experiment": "analytical gel filtration (Superdex 200) of the purified single chain; no self-association", "description": "Circular dichroism (CD) measurements were performed on a Jasco J-810 spectropolarimeter using a 0.2 cm path length quartz cuvette adm […] protein solutions in phosphate saline buffers. Equilibrium unfolding was induced increasing temperature at a rate of 1° C./min (using a programmable Peltier thermoelectric). Analytical gel filtration chromatography was performed at room temperature with an AKTA FPLC system (GE) using a Superdex 200 10/300GL column in 20 mM sodium phosphate buffer pH 6.0 1 M NaCl. A sample of 100 μL of SC-v3v2G19S constructs at a concentration of 0.3 mg/ml was injected and eluted at a flow rate of 0.2 ml/min. The column was calibrated with blue dextran (excluded volume) and molecular weight markers from 17 to 670 kDa (BioRad)."}, "[3]": {"target": "T1, H33 I-CreI mutant (C3 / HprCH3.3 cutter)", "T1 chain": "B7 chain with A38Q, Q40S, K44Q, Q68R, S70R, N75D"}},
  "note": "Positions count from the first letter of the chain named.",
  "data": [
    {"protein": "B1", "values": [
      {"measurement": "cleavage of the palindromic RAG1.10.2 target (yeast screen)", "result": "M2-RM2-M3 was found to cleave also RAG1.10.2"}
    ]},
    {"protein": "B2", "values": [
      {"measurement": "cleavage of the palindromic RAG1.10.2 target (yeast screen)", "result": "abolishes RAG1.10.2 cleavage"}
    ]},
    {"protein": "B3", "values": [
      {"measurement": "binding result", "setting": "[1]", "result": "no binding"}
    ]},
    {"protein": "B4", "values": [
      {"measurement": "cleavage of the palindromic C3 target (yeast screen and CHO extrachromosomal assay)", "result": "the strong cleavage of the C3 target with single chain molecules"}
    ]},
    {"protein": "B5", "values": [
      {"measurement": "cleavage of the palindromic C3 target (CHO extrachromosomal assay)", "result": "greatly reduces the activity toward the C3 target"}
    ]},
    {"protein": "B6", "values": [
      {"measurement": "binding result", "setting": "[2]", "result": "no binding"}
    ]},
    {"protein": "B7", "values": [
      {"measurement": "cleavage of the XPC C1 DNA target on co-expression in yeast", "setting": "[3]", "result": "cleaves the C1 target"},
      {"measurement": "cleavage of the palindromic C4 DNA target on co-expression of X2 and H33 in yeast", "result": "but also the C3 and C4 targets"}
    ]},
    {"protein": "B8", "values": [
      {"measurement": "cleavage of the palindromic HprCH3.3 and HprCH3.4 targets on co-expression of MA17 and H33 in yeast", "result": "cleavage of the HprCH3.3 and HprCH3.4 targets"}
    ]},
    {"protein": "B9", "values": [
      {"measurement": "cleavage of the HprCH3 DNA target on co-expression in yeast", "setting": "[3]", "result": "resulted in the cleavage of the HprCH3 DNA target"},
      {"measurement": "cleavage of the palindromic HprCH3.3 and HprCH3.4 targets on co-expression of MA17 and H33 in yeast", "result": "cleavage of the HprCH3.3 and HprCH3.4 targets"}
    ]},
    {"protein": "B10", "values": [
      {"measurement": "cleavage of the palindromic C3 target (CHO extrachromosomal assay)", "result": "greatly reduces the activity toward the C3 target"}
    ]},
    {"protein": "B11", "values": [
      {"measurement": "cleavage of the palindromic C3 target (yeast screen and CHO extrachromosomal assay)", "result": "the strong cleavage of the C3 target with single chain molecules"}
    ]}
  ]
}
